Experimental findings from patent US20240344241A1, “PROTEINACEOUS MOLECULES AND USES THEREFOR” (THE UNIVERSITY OF QUEENSLAND, priority 2021, published 2024) are described below.

Format in all cases: biochemical
The target in one assay is T1, Human β-FXIIa (Homo sapiens, UniProt P00748).
T1 construct: Human β-FXIIa was obtained from Molecular Innovations, together with human FXa, human FXIa, human α-thrombin, and human plasma kallikrein; purchased Molecular Innovations; host or cells: purified from human plasma
The experiment in a line: FXIIa competitive inhibition assay, colorimetric substrate Ac-QRFR-pNA. An outline of the steps:
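Enzyme and substrate levels differ per protease. Inhibitor–enzyme mixtures reach equilibrium at room temperature at pH 8.0 with 10 mM CaCl2 before substrate addition; continuous absorbance (405 nm) or fluorescence (360/460 nm) readout gives Morrison Ki.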

The target in another assay is T2, Human trypsin (Homo sapiens, UniProt P07477).
T2 construct: purchased Sigma-Aldrich; host or cells: purified from human tissue
Kind of assay: Trypsin competitive inhibition assay. The method, then: (§1) The activity of acyclic and cyclic MCoFx1-5 and analogues thereof was assessed in competitive inhibition assays, as previously described in Swedberg et al. (2016) J Med Chem, 59: 7287-7292. Human β-FXIIa was obtained from Molecular Innovations, together with human FXa, human FXIa, human α-thrombin, and human plasma kallikrein. Human cationic trypsin and human plasmin were obtained from Sigma-Aldrich, and recombinant human matriptase was sourced from R&D Systems. Recombinant human urokinase (uPA) and recombinant human tissue plasminogen activator (tPA) were expressed in Expi293 cells, as previously described in Li et al. (2019) Chembiochem, 20: 46-50. FXIIa inhibition assays were performed in clear, low-binding 96-well plates using 250 μL (final volume) of assay buffer (0.1 M Tris-HCl pH 8.0, 0.1 M NaCl, 10 mM CaCl2 and 0.005% Triton X-100). Inhibitors were serially diluted and incubated with 10 nM FXIIa at room temperature to reach equilibrium. After adding 100 μM Ac-QRFR-pNA substrate (KM=162 μM), enzymatic activity was measured by monitoring release of the pNA moiety using a TECAN infinite M1000 Pro plate reader (A=405 nm, reading interval, 10 s; assay time course, 7 min). Assays were conducted in three times in duplicate. Substrate kinetic constants (Michaelis-Menten) and inhibition constants (Morrison K) were determined by non-linear regression using Prism 7 (GraphPad). Selectivity assays with off-target proteases were performed in a similar way, except that different concentrations of enzyme and substrate were used, as indicated in Table 16. For assays using a fluorescent substrate (peptide-4-methylcoumaryl-7-amide, MCA), black low-binding 96-well plates were used and activity was measured using a TECAN infinite M1000 pro plate reader (λex 360 nm, λem 460 nm, reading interval, 30 s; assay time course, 5-30 min).

For another assay, the target named is T3, Rec. human matriptase (Homo sapiens, UniProt Q9Y5Y6).
T3 construct: purchased R&D Systems
T3 sequence (Q9Y5Y6 615-855 limits assumed): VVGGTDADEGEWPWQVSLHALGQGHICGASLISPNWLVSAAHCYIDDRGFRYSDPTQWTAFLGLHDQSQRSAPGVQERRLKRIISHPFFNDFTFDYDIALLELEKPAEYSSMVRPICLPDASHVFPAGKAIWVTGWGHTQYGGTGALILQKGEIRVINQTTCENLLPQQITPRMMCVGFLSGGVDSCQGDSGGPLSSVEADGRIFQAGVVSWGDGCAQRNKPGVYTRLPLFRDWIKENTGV
Kind of assay: Matriptase inhibition assay. The method, then:
as §1

The target in assay [1] is kallikrein-related peptidase 4 (KLK4) (Homo sapiens, UniProt Q9Y5K2). Kind of assay: KLK4 competitive inhibition assay. The method, then:
The inhibitor variants were screened against FXIIa and three off-target proteases, trypsin, matriptase and kallikrein-related peptidase 4 (KLK4), in competitive inhibition assays using a single concentration of inhibitor that ranged from 1.25 nM (KLK4) to 25 nM (FXIIa).
The activity of acyclic and cyclic MCoFx1-5 and analogues thereof was assessed in competitive inhibition assays, as previously described in Swedberg et al. (2016) J Med Chem, 59: 7287-7292. Human β-FXIIa was obtained from Molecular Innovations, together with human FXa, human FXIa, human α-thrombin, and human plasma kallikrein. Human cationic trypsin and human plasmin were obtained from Sigma-Aldrich, and recombinant human matriptase was sourced from R&D Systems. […] After adding 100 μM Ac-QRFR-pNA substrate (KM=162 μM), enzymatic activity was measured by monitoring release of the pNA moiety using a TECAN infinite M1000 Pro plate reader (A=405 nm, reading interval, 10 s; assay time course, 7 min). […] Substrate kinetic constants (Michaelis-Menten) and inhibition constants (Morrison K) were determined by non-linear regression using Prism 7 (GraphPad). […] For assays using a fluorescent substrate (peptide-4-methylcoumaryl-7-amide, MCA), black low-binding 96-well plates were used and activity was measured using a TECAN infinite M1000 pro plate reader (λex 360 nm, λem 460 nm, reading interval, 30 s; assay time course, 5-30 min).

Assay [2] deals with clotting via the intrinsic pathway. The experiment in a line: Activated partial thromboplastin time (aPTT) assay in human plasma. An excerpt:
(§2) Citrated, platelet-poor plasma samples from healthy adults were collected, prepared, and stored using previously established collection protocols, such as in Zdenek et al. (2019) Toxicol in Vitro, 58: 97-109.
(§3) Standard coagulation assays were used to determine the effect of the inhibitors on the clotting time of human plasma. Activated partial thromboplastin time (aPTT) uses a Kaolin reagent (clay) to activate the intrinsic/contact pathway of the coagulation cascade, whereas prothrombin time (PT) uses Neoplastine (lyophilized thromboplastin prepared from rabbit cerebral tissue) to activate the extrinsic/tissue-factor pathway of the coagulation cascade. A minor adjustment was made to both tests (addition of 25 μL inhibitor or buffer; refer to Table 17) to accommodate the addition of an inhibitor without changing the total volume (and therefore relative ratios of additives) of the assay. Concentrations of inhibitor are reported as the concentration at the point of incubation in the assay, i.e. not taking into account the addition of the start reagent (calcium for aPTT, or Neoplastine for PT).
(§4) Clotting time (seconds) of plasma was automatically measured using a STA-R Max® analyzer (Stago, Asnieres sur Seine, France). Measurements were conducted using a viscosity-based (mechanical) detection system, whereby opposing magnets oscillate a small metal spherical pellet inside the test cuvette (250 μL total volume) until a clot is formed. Dilution of the inhibitor in Owren-Koller (OK) buffer for dose-response curves was performed automatically by the machine. Reagents were kept at 15-19° C. in the machine during experimentation and otherwise stored at 4° C. All tests were performed in triplicate.

In assay [3] the test system is clotting via the extrinsic pathway. The experiment in a line: Prothrombin time (PT) assay in human plasma. To be noted: at 10 μM.
Excerpt: as §2, §3, §4

kallikrein-related peptidase 4 (KLK4), sequence (Q9Y5K2 31-254): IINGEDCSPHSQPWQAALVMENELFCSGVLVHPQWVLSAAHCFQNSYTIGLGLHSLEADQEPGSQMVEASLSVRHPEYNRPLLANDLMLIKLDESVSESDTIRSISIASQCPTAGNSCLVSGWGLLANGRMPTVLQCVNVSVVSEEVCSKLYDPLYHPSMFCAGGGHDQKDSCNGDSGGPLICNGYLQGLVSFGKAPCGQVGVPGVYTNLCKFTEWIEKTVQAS
T1 sequence (P00748 373-615 limits assumed, other chains not shown): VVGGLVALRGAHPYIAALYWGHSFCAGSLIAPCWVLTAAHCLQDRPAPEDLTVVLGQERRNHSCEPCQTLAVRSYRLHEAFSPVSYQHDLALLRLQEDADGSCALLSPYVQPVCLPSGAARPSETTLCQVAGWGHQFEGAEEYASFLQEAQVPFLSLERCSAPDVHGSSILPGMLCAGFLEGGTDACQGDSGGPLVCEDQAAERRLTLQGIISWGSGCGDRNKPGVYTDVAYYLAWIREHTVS

On to “NH2-RVCPR[4-F-Phe]EKKCRRDSDCPGACICRGNGYCG-OH (RVCPRXEKKCRRDSDCPGACICRGNGYCG; 4-F-Phe non-natural residue; MOD_RES 6 4-fluoro-L-phenylalanine) [Peptide 1]”, for which the “change in Ki for FXIIa compared to M” value in the assay with Human β-FXIIa is reported as “three-fold”. For the same substance, in the assay with Human trypsin, the “Ki against trypsin (in words)” value is on record as “in the micromolar range” and the “fold change in activity for trypsin compared to M” value is given as 7,350 fold. Besides, in the assay with Rec. human matriptase, the “Ki against matriptase (in words)” value was “in the micromolar range” and the “fold change in activity for matriptase compared to M” value is reported as 9,650 fold. The “fold change in activity for KLK4 compared to M” value in assay [1] is given as > 100,000 fold. Further, in assay [2], the “EC1.5× (concentration required to extend the clotting time by 50%)” value was 840 nM and the “EC2× (doubling the clotting time)” value was 2.9 µM. The “clotting time compared to control, PT assay” value in assay [3] is listed as “No effect on clotting time”.
